Values belong to the molecule of their own block, whether it stands above or below them.
Legend:
[1] = target: B cell receptor (BCR) (human (endogenous in Ramos)); assay: FRET or BRET
FRET or BRET = target: the molecule itself; assay: FRET or BRET

normalized FCET at 30 min of BCR stimulation [1]: 2.6 units | normalized FCET at 30 min of BCR stimulation, with the CD47xCD19 biAb [1]: 1.5 units | normalized FCET at 1 hour of BCR stimulation [1]: 3.6 units | normalized FCET at 1 hour of BCR stimulation, with the CD47xCD19 biAb [1]: 1.9 units
Molecule: CD19 (from UniProt P15391 20-556) (receptor)

B1: CD19 (receptor)
chain: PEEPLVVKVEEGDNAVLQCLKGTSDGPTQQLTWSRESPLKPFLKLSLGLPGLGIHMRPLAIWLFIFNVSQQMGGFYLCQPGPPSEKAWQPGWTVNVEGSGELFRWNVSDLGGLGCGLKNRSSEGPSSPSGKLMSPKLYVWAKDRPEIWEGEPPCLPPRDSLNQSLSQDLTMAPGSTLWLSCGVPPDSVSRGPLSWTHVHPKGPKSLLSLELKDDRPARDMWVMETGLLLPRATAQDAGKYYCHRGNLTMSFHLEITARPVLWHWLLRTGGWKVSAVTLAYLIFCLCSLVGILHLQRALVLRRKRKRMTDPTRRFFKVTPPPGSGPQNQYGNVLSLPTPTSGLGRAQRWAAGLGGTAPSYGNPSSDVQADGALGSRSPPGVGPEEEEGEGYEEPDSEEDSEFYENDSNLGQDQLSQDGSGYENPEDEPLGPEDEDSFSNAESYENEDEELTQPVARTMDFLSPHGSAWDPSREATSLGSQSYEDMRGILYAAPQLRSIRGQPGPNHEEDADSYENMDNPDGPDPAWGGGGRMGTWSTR
normalized FCET (fold over baseline), with the bivalent anti-CD19 mAb (FRET or BRET): 8.2 fold

B2: CD20 (receptor)
chain: MTTPRNSVNGTFPAEPMKGPIAMQSGPKPLFRRMSSLVGPTQSFFMRESKTLGAVQIMNGLFHIALGGLLMIPAGIYAPICVTVWYPLWGGIMYIISGSLLAATEKNSRKCLVKGKMIMNSLSLFAAISGMILSIMDILNIKISHFLKMESLNFIRAHTPYINIYNCEPANPSEKNSPSTQYCYSIQSLFLGILSVMLIFAFFQELVIAGIVENEWKRTCSRPKSNIVLLSAEEKKEQTIEIKEEVVGLTETSSQPKNEEDIEIIPIQEEEEEETETNFPEPPQDQESSPIENDSSP
normalized FCET (fold over baseline), with the anti-CD20 mAb rituximab (FRET or BRET): 6.7 fold
